Laboratory results from the supplement of paper PMC9112550, “Optimization of the antimicrobial peptide Bac7 by deep mutational scanning” (BMC Biology, 2022).

test system: Escherichia coli TOP10; experiment: shrunken log2 fold change of peptide-encoding DNA abundance (4.5 h post-induction vs induction); higher = less antimicrobial activity (less host growth inhibition); conditions: time post-induction: 4.5 h; library: site-saturation at positions 5, 18, 19, 20
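Further: peptides expressed intracellularly from a pBAD plasmid library in pooled LB shake-flask culture, induced with 0.3% L-arabinose, DNA abundance read by NGS, three biological replicates, DESeq2 with apeglm shrinkage.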

Row | Sequence | shrunken log2 fold change
1 | RRIRLRPPRLPRPRPRPAFEPRP | 0.36
2 | RRIRLRPPRLPRPRPRPAGKPRP | -0.132
3 | RRIRLRPPRLPRPRPRPAIKPRP | -0.139
4 | RRIRLRPPRLPRPRPRPAKKPRP | 0.0858
5 | RRIRLRPPRLPRPRPRPAKNPRP | 0.00752
6 | RRIRLRPPRLPRPRPRPALAPRP | 0.305
7 | RRIRLRPPRLPRPRPRPALIPRP | -0.00882
8 | RRIRLRPPRLPRPRPRPALKPRP | 0.489
9 | RRIRLRPPRLPRPRPRPALMPRP | 0.306
10 | RRIRLRPPRLPRPRPRPALSPRP | 3.4
11 | RRIRLRPPRLPRPRPRPAQKPRP | 0.37
12 | RRIRLRPPRLPRPRPRPAQLPRP | 0.166
13 | RRIRLRPPRLPRPRPRPARRPRP | 0.348
14 | RRIRLRPPRLPRPRPRPARTPRP | 0.468
15 | RRIRLRPPRLPRPRPRPASPPRP | 0.0633
16 | RRIRLRPPRLPRPRPRPATCPRP | -0.597
17 | RRIRLRPPRLPRPRPRPATKPRP | 0.0731
18 | RRIRLRPPRLPRPRPRPATLPRP | -0.12
19 | RRIRLRPPRLPRPRPRPAWHPRP | 0.183
20 | RRIRLRPPRLPRPRPRPAWQPRP | 0.202
21 | RRIRLRPPRLPRPRPRPAYPPRP | 0.283
22 | RRIRLRPPRLPRPRPRPCAIPRP | -0.218
23 | RRIRLRPPRLPRPRPRPCCPPRP | -0.196
24 | RRIRLRPPRLPRPRPRPCCYPRP | -0.611
25 | RRIRLRPPRLPRPRPRPCDIPRP | -0.0237

Row | Sequence | shrunken log2 fold change
26 | RRIRLRPPRLPRPRPRPCHQPRP | -0.234
27 | RRIRLRPPRLPRPRPRPCHVPRP | -0.412
28 | RRIRLRPPRLPRPRPRPCIIPRP | -0.394
29 | RRIRLRPPRLPRPRPRPCKKPRP | -0.149
30 | RRIRLRPPRLPRPRPRPCKRPRP | -0.0962
31 | RRIRLRPPRLPRPRPRPCKWPRP | 0.117
32 | RRIRLRPPRLPRPRPRPCLCPRP | -0.0557
33 | RRIRLRPPRLPRPRPRPCMGPRP | -0.085
34 | RRIRLRPPRLPRPRPRPCMIPRP | -0.21
35 | RRIRLRPPRLPRPRPRPCNFPRP | -0.0369
36 | RRIRLRPPRLPRPRPRPCQDPRP | 0.0219
37 | RRIRLRPPRLPRPRPRPCQIPRP | -0.102
38 | RRIRLRPPRLPRPRPRPCRHPRP | -0.601
39 | RRIRLRPPRLPRPRPRPCSGPRP | 0.0583
40 | RRIRLRPPRLPRPRPRPCTAPRP | -0.139
41 | RRIRLRPPRLPRPRPRPCTPPRP | -0.172
42 | RRIRLRPPRLPRPRPRPCVFPRP | -0.13
43 | RRIRLRPPRLPRPRPRPCWFPRP | -0.21
44 | RRIRLRPPRLPRPRPRPCYEPRP | -0.284
45 | RRIRLRPPRLPRPRPRPCYIPRP | -0.115
46 | RRIRLRPPRLPRPRPRPCYPPRP | -0.661
47 | RRIRLRPPRLPRPRPRPCYSPRP | -0.142
48 | RRIRLRPPRLPRPRPRPDECPRP | 0.0277
49 | RRIRLRPPRLPRPRPRPDEDPRP | 0.0258
50 | RRIRLRPPRLPRPRPRPDFEPRP | -0.0246

Row | Sequence | shrunken log2 fold change
51 | RRIRLRPPRLPRPRPRPDGEPRP | -0.00819
52 | RRIRLRPPRLPRPRPRPDHNPRP | -0.00288
53 | RRIRLRPPRLPRPRPRPDIMPRP | -0.0927
54 | RRIRLRPPRLPRPRPRPDKLPRP | -0.266
55 | RRIRLRPPRLPRPRPRPDKPPRP | -0.228
56 | RRIRLRPPRLPRPRPRPDMCPRP | -0.0164
57 | RRIRLRPPRLPRPRPRPDNHPRP | -0.519
58 | RRIRLRPPRLPRPRPRPDNMPRP | -0.519
59 | RRIRLRPPRLPRPRPRPDSPPRP | -0.119
60 | RRIRLRPPRLPRPRPRPDSQPRP | -0.117
61 | RRIRLRPPRLPRPRPRPDSWPRP | -0.139
62 | RRIRLRPPRLPRPRPRPDTQPRP | 0.0809
63 | RRIRLRPPRLPRPRPRPDVCPRP | 0.0271
64 | RRIRLRPPRLPRPRPRPDWPPRP | -0.0804
65 | RRIRLRPPRLPRPRPRPDWQPRP | -0.0564
66 | RRIRLRPPRLPRPRPRPDYGPRP | -0.23
67 | RRIRLRPPRLPRPRPRPDYQPRP | -0.137
68 | RRIRLRPPRLPRPRPRPEACPRP | -0.0158
69 | RRIRLRPPRLPRPRPRPEAHPRP | -0.187
70 | RRIRLRPPRLPRPRPRPECDPRP | -0.00082
71 | RRIRLRPPRLPRPRPRPEDCPRP | 0.0408
72 | RRIRLRPPRLPRPRPRPEDSPRP | -0.0351
73 | RRIRLRPPRLPRPRPRPEFFPRP | 0.02
74 | RRIRLRPPRLPRPRPRPEFQPRP | -0.0134
75 | RRIRLRPPRLPRPRPRPEGTPRP | 0.241
